# In patent US20210283258A1:
# Molecular target: HER2 receptor (human) (UniProt P04626)
# Experiment: cell-based or functional assay
# Conditions: scale: % greater uptake compared to the non-targeted nanoparticle
substance,measurement,value
Herceptin®-PEG-nitroPBA targeted MAP-CPT nanoparticle (antibody),"cellular uptake in BT-474 cell line (CPT fluorescence of cell lysate, 30 min at 37° C.)",70
